Data on 1 substance can be found in patent US20250026844A1.

“And” between values parts separate entries of the source, which are not always exact repeats. Equal values may be shown once.

Assay [1] concerns the target monkey BCMA-His protein (monkey). Put plainly: ELISA, coated monkey BCMA-His, antibody 1 nM. (In general: ELISA stands for enzyme-linked immunosorbent assay.)
The target of assay [2] is human BCMA on cells (human) (UniProt Q02223). The assay can be described thus: FACS, U266 cells.
The target in assay [3] is monkey BCMA-His protein (monkey). The assay can be described thus: ELISA, coated monkey BCMA-His, antibody 0.01 nM.
The target in assay [4] is human BCMA on cells (human) (UniProt Q02223). The assay can be described thus: FACS, H929 cells.
Assay [5] has the same target. Put plainly: FACS, U266 cells. The source holds these as a separate data set. (In flow cytometry, cells or beads pass a laser one at a time.)
Assay [6] addresses monkey BCMA-His protein (monkey). The assay can be described thus: ELISA, coated monkey BCMA-His, antibody 0.001 nM.
Assay [7] concerns the target human BCMA-His protein (human) (UniProt Q02223). Put plainly: ELISA, coated human BCMA-His, antibody 0.001 nM.
Assay [8] shares this target. Put plainly: ELISA, coated human BCMA-His, antibody 0.01 nM.
Assay [9] has the same target. The assay can be described thus: ELISA, coated human BCMA-His, antibody 1 nM.
Assay [10] has as its target human BCMA on cells (human) (UniProt Q02223). Put plainly: FACS, H929 cells. The source holds these as a separate data set.
Assay [11] shares this target. The assay can be described thus: FACS, Flp-in CHO-human BCMA cells.
Assay [12] has as its target monkey BCMA-His protein (monkey). Put plainly: ELISA, coated monkey BCMA-His, antibody 0.1 nM.
Assay [13] has as its target human BCMA-His protein (human) (UniProt Q02223). Put plainly: ELISA, coated human BCMA-His, antibody 0.0001 nM.
The target of assay [14] is monkey BCMA-His protein (monkey). The assay can be described thus: ELISA, coated monkey BCMA-His, antibody 10 nM.
Assay [15] has as its target human BCMA on cells (human) (UniProt Q02223). The assay can be described thus: FACS, U266 cells. The source holds these as a separate data set.
The target is the same in assay [16]. Put plainly: FACS, U266 cells. The source holds these as a separate data set.
The target is the same in assay [17]. Put plainly: FACS, H929 cells. This is another data set of the same source.
Assay [18] deals with human BCMA-His protein (human) (UniProt Q02223). The assay can be described thus: ELISA, coated human BCMA-His, antibody 10 nM.
Assay [19] addresses monkey BCMA-His protein (monkey). The assay can be described thus: ELISA, coated monkey BCMA-His, antibody 100 nM.
Assay [20] concerns the target human BCMA on cells (human) (UniProt Q02223). Put plainly: FACS, H929 cells. This is another data set of the same source.
The target of assay [21] is human BCMA-His protein (human) (UniProt Q02223). Put plainly: ELISA, coated human BCMA-His, antibody 100 nM.
For assay [22] the target is unchanged. Put plainly: ELISA, coated human BCMA-His, antibody 0.1 nM.
In assay [23] the target is monkey BCMA-His protein (monkey). Put plainly: ELISA, coated monkey BCMA-His, antibody 0.0001 nM.
Assay [24] has as its target monkey BCMA on Flp-inCHO cells (monkey). The assay can be described thus: FACS, Flp-in CHO-monkey BCMA cells.

human BCMA-His protein (human), sequence (Q02223 1-54 limits assumed): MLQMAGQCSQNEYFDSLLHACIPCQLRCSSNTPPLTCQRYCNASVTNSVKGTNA
human BCMA on cells (human), sequence (Q02223 whole entry): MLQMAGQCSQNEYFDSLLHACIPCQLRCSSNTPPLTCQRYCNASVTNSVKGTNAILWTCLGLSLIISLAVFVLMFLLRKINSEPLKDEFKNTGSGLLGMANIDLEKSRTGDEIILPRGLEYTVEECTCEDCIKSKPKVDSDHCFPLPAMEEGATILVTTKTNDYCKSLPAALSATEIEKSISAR
monkey BCMA-His protein (monkey), sequence (A0A2K5 entry or part of it limits assumed): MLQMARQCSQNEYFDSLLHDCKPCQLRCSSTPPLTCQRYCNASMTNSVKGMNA

Consider “anti-hel-hlgG1 (negative control antibody against hen egg lysozyme)”, for which the OD450 nm was determined as 0.05 OD450 nm in assay [1]; 0.04 OD450 nm in [3]; 0.05 OD450 nm in [6]; 0.05 OD450 nm in [7]; 0.05 OD450 nm in assay [8]; 0.05 OD450 nm in [9]. Also, the OD450 nm worked out at 0.05 OD450 nm in [12]; 0.05 OD450 nm in assay [13]; 0.06 OD450 nm in [14]; 0.07 OD450 nm in [18]; 0.1 OD450 nm in assay [19]; 0.12 OD450 nm in [21]. Further, the OD450 nm in [22] and in assay [23] was 0.05 OD450 nm throughout. Further, the Maximum mean fluorescence intensity in assay [2] is 124 MFI; in assay [4], 121 MFI; in assay [5], 108 MFI and 111 MFI and 119 MFI; in assay [10], 110 MFI; in assay [15] it was 149 MFI; in assay [16], 103 MFI. The Maximum mean fluorescence intensity in assay [17] was 99 MFI and 91 MFI and 167 MFI; in assay [20], 93 MFI. For the same substance, the Cell mean fluorescence density in assay [11] came to 54.6 MFI; in [24] it was 49 MFI.
